Laboratory results reported in patent US20190256608A1 (GlaxoSmithKline, published 2019).

Molecular target: cynomolgus PD-1 (cynomolgus)
Assay: kinetic analysis (bio-light interferometry)

Kd: 0.118 nM
B1: Pembrolizumab (antibody, human IgG4 S228P, kappa, V domains shown)
VH: QVQLVQSGVEVKKPGASVKVSCKASGYTFTNYYMYWVRQAPGQGLEWMGGINPSNGGTNFNEKFKNRVTLTTDSSTTTAYMELKSLQFDDTAVYYCARRDYRFDMGFDYWGQGTTVTVSS
VL: EIVLTQSPATLSLSPGERATLSCRASKGVSTSGYSYLHWYQQKPGQAPRLLIYLASYLESGVPARFSGSGSGTDFTLTISSLEPEDFAVYYCQHSRDLPLTFGGGTKVEIKR
notes: also called MK3475
